This note sets out measurements from article PMC6660772.

B1: KAP1 RBCC (residues 50-413), wild type [human] / itself (parent)
chain: SPAGGGAEALELLEHCGVCRERLRPEREPRLLPCLHSACSACLGPAAPAAANSSGDGGAAGDGTVVDCPVCKQQCFSKDIVENYFMRDSGSKAATDAQDANQCCTSCEDNAPATSYCVECSEPLCETCVEAHQRVKYTKDHTVRSTGPAKSRDGERTVYCNVHKHEPLVLFCESCDTLTCRDCQLNAHKDHQYQFLEDAVRNQRKLLASLVKRLGDKHATLQKSTKEVRSSIRQVSDVQKRVQVDVKMAILQIMKELNKRGRVLVNDAQKVTEGQQERLERQHWTMTKIQKHQEHILRFASWALESDNNTALLLSKKLIYFQLHRALKMIVDPVEPHGEMKFQWDLNAWTKSAEAFGKIVAERP

This test covers variants of B1. Briefly: SEC-MALS. To be noted: with itself; mutant 179 µM; WT 159 µM; read off a plot. On the technique in general: Size exclusion chromatography separates by hydrodynamic size, large species first.
chain 1 A111D T114A E126R: the screen value worked out at 95 kDa.
